From publication PMC10442857, “Cellular Uptake of a Fluorescent Ligand Reveals Ghrelin O-Acyltransferase Interacts with Extracellular Peptides and Exhibits Unexpected Localization for a Secretory Pathway Enzyme” (ACS Chemical Biology, 2023)
Where two headings read alike, the source gives them in different places. Square brackets hold non-standard residues; d marks the D form. Peptide text beside a SMILES is read from it. * marks the point of attachment. 1Nal = N[C@@H](Cc1cccc2ccccc12)C(=O)O; X2 = O=C(c1ccc2cc(F)ccc2c1)*; Octanoyl = CCCCCCCC(=O)*; Dap = NC[C@H](N)C(=O)O; Inp = O=C(O)C1CCNCC1

Assays:
hGOAT = target: T1, hGOAT (Homo sapiens, UniProt Q96T53); experiment: hGOAT inhibition assay (octanoylation of GSSFLCAcDan by Sf9 membrane fraction expressing hGOAT, HPLC fluorescence); type: biochemical; settings: read-out: IC50 against hGOAT
T1 construct: 3xHA (C); FLAG (C); His6 (C); made in house; host or cells: Sf9 insect cells (baculovirus), crude membrane fraction
T1 sequence (Q96T53 1-435): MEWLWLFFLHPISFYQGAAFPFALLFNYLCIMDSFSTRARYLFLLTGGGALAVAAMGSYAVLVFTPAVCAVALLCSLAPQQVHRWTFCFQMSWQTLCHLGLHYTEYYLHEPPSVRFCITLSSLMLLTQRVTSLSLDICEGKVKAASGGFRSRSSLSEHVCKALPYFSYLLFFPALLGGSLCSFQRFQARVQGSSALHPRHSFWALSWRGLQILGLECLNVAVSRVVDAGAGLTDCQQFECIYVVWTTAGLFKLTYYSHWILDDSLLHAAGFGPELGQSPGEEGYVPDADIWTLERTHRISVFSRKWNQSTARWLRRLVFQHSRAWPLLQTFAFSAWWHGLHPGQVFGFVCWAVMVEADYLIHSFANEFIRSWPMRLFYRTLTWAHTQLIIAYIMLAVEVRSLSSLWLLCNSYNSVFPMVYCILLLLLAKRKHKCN
Experimental: Assays were performed using previously reported protocols,[57],[58] as described in the Supporting Information. […]
hGOAT inhibition assays. Assays were performed using previously reported protocols.2-3 For each assay, membrane fraction from Sf9 cells expressing hGOAT was thawed on ice and homogenized by passage through an 18-gauge needle 10 times. Assays were performed with 50 µg of membrane protein, as determined by Bradford assay. Membrane fraction was pre-incubated with 1 µM methyl […]
arachidonyl fluorophosphonate (MAFP) and unlabeled peptide inhibitor or vehicle as indicated in 50 mM HEPES pH 7.0 for 30 minutes at room temperature prior to reaction initiation.4 All reactions were initiated by the addition of 1.5 µM GSSFLCAcDan and 300 µM octanoyl CoA.
Reactions were incubated for 30 minutes at room temperature under foil. All assays were stopped with the addition of 50 µL of 20% acetic acid in isopropanol, and solutions were clarified by protein precipitation with 16.7 µL of 20% trichloroacetic acid, followed by centrifugation (1,000 x g, 2 minutes). The supernatant was then analyzed using reverse-phase HPLC with fluorescence detection as previously described.2-3 Peak integrations for both substrate and product peaks were calculated using Chemstation for LC (Agilent Technologies). Data reported are the average of three independent determinations, with error reported as standard deviation.
For determination of IC50 values, the percent activity at each inhibitor concentration was calculated from HPLC integration data using equations 1 and 2: To determine an IC50 value for a given inhibitor, the plot of % activity versus [inhibitor] was fit to equation 3, with % activity0 denoting hGOAT activity in the presence of the vehicle alone. All reported IC50 values represent the average of a minimum of three independent trials.
(1) % activity = % peptide acylation in presence of inhibitor
% peptide acylation in absence of inhibitor
(2) % peptide octanoylation = Fluorescence of acylated peptide
Total peptide fluorescence (acylated and non-acylated)
(3) % activity = % activity * (1- [inhibitor] )

GHSR (GHS-R1a) [1] = target: T2, GHSR (GHS-R1a) (Homo sapiens, UniProt Q92847); design: method as in Charron et al.[22]; settings: ref Charron et al.[22]; read-out: IC50 against GHSR; cited from earlier work
T2 construct: expressed in transfected cells; host or cells: HEK 293 cells transfected with GHS-R1a (membrane suspension)
Target sequence in this assay (Q92847 whole entry, species assumed): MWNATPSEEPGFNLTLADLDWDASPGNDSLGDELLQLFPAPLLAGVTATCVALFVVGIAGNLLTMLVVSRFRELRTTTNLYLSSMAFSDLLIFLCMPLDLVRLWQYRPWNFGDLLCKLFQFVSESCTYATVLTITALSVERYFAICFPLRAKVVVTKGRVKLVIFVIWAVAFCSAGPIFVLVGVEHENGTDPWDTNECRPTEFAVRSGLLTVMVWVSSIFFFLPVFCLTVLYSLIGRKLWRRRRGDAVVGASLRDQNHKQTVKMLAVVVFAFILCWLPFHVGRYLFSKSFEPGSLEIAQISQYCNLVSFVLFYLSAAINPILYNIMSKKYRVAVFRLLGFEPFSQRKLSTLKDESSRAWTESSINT

GHSR (GHS-R1a) [2] = target: T2, GHSR (GHS-R1a); experiment: biochemical; type: binding; settings: lower limit from test at 100 µM; read-out: IC50 against GHSR
Experimental: Peptide binding affinity for the ghrelin receptor was determined using a competitive radioligand-displacement binding assay,[22] with details provided in the Supporting Information. […]
GHSR receptor binding assays. Peptide binding affinity for the ghrelin receptor was determined using a competitive radioligand-displacement binding assay.1 Assays were performed using GHS-R1a transfected HEK 293 cells as the receptor source and human His[125I]-ghrelin(1−28) (PerkinElmer Inc. NEX388010UC ) as the radioligand. Human ghrelin(1−28) was used as a reference to ensure the validity of the results. A suspension of membrane from HEK 293/GHS-R1a cells (100,000 cells per assay tube) were incubated with ghrelin(1−8) peptide analogues (at […]
ghrelin (15 pM per assay tube) in binding buffer (25 mM HEPES, 5 mM magnesium chloride, 1 mM calcium chloride, 2.5 mM EDTA, and 0.4% BSA, pH 7.4). The resulting suspension was incubated for 20 min under shaking (550 rpm) at 37 °C. Unbound [ 125I]-ghrelin was removed and the amount of [ 125I]-ghrelin bound to the membranes was measured by γ counter. IC 50 values were determined by nonlinear regression analysis to fit a four-parameter dose−response curve using Prism 6 (version 6.0c). All binding assays were performed in triplicate. […]

[3] = target: human ghrelin O-acyltransferase (hGOAT) of the hGOAT inhibition assays (human) (UniProt Q96T53)
[4] = target: T3, human ghrelin O-acyltransferase (hGOAT) of the hGOAT inhibition assays (human, UniProt Q96T53 1-435); experiment: cell-based or functional assay
T3 sequence (looked up): T1 sequence (Q96T53 1-435)

**Q.** With `CCCCCCCC(=O)NC[C@H](NC(=O)[C@H](CO)NC(=O)CN)C(=O)N[C@@H](Cc1ccccc1)C(=O)N[C@@H](CC(C)C)C(=O)N[C@@H](CO)C(=O)N1CCC[C@H]1C(=O)N[C@@H](Cc1ccc(O)cc1)C(N)=O` [ligand 2, H-GS-(C8-Dap)-FLSPY-NH2] (H-GS[Dap](Octanoyl)FLSPY-NH2) as the molecule, how does the IC50 (hGOAT; average of three independent trials ± one standard deviation) read?
**A.** 64 ± 21 nM

**Q.** And the IC50 (GHSR (GHS-R1a) [1])?
**A.** 65 nM

**Q.** With `CC(C)C[C@H](NC(=O)[C@H](Cc1ccccc1)NC(=O)[C@H](CN)NC(=O)[C@H](CO)NC(=O)CN)C(=O)N[C@@H](CO)C(=O)N1CCC[C@H]1C(=O)N[C@@H](Cc1ccc(O)cc1)C(N)=O` [ligand 1, H-GS-Dap-FLSPY-NH2] (HELM PEPTIDE1{G.S.[NC[C@H](N[*:1])C(=O)[*:2]].F.L.S.P.Y.[am]}$$$$V2.0) as the molecule, how does the IC50 (GHSR (GHS-R1a) [2]) read?
**A.** ≥ 100000 nM

**Q.** For “ligand 10, H-GS-(C8-Dap)-FLSPN-NH2 (peptide)”, which inhibition of hGOAT activity (IC50 against hGOAT) [3] is on record?
**A.** 59 nM

**Q.** Which inhibition of hGOAT activity (IC50 against hGOAT) [3] does the source give for “ligand 9, H-GS-(C8-Dap)-FLSPE-NH2 (peptide)” here?
**A.** 580 nM

**Q.** Which inhibition of hGOAT activity (IC50 against hGOAT) [3] does the source give for “ligand 11, H-GS-(C8-Dap)-FLSPT-NH2 (peptide)” here?
**A.** 27 nM

**Q.** Which IC50 (hGOAT) does the source give for `CC(C)C[C@H](NC(=O)[C@H](Cc1cccc2ccccc12)NC(=O)[C@H](CNC(=O)c1ccc2cc(F)ccc2c1)NC(=O)[C@H](CO)NC(=O)C1CCNCC1)C(=O)N[C@@H](CO)C(=O)N1CCC[C@H]1C(=O)N[C@H](C(N)=O)[C@@H](C)O` [ligand 14] (H-[Inp]S[Dap](X2)[1Nal]LSPT-NH2) here?
**A.** > 100000 nM

**Q.** For `CC(C)C[C@H](NC(=O)[C@H](Cc1ccccc1)NC(=O)[C@H](CN)NC(=O)[C@H](CO)NC(=O)C1CCNCC1)C(=O)N[C@@H](CO)C(=O)N1CCC[C@H]1C(=O)N[C@@H](Cc1ccc(O)cc1)C(N)=O` [ligand 5, H-Inp-S-Dap-FLSPY-NH2] (HELM PEPTIDE1{[O=C(C1CCNCC1)[*:2]].S.[NC[C@H](N[*:1])C(=O)[*:2]].F.L.S.P.Y.[am]}$$$$V2.0), which IC50 (hGOAT) is on record?
**A.** > 100000 nM

**Q.** And the IC50 (GHSR (GHS-R1a) [2])?
**A.** ≥ 100000 nM

**Q.** For “ligand 2, H-GS-(C8-Dap)-FLSPY-NH2 (peptide)”, which inhibition of hGOAT activity (IC50 against hGOAT) [3] is on record?
**A.** 64 nM

B1: ligand 1, H-GS-Dap-FLSPY-NH2 (peptide)
chain: GSXFLSPY
HELM: PEPTIDE1{G.S.[NC[C@H](N[*:1])C(=O)[*:2]].F.L.S.P.Y.[am]}$$$$V2.0
SMILES: CC(C)C[C@H](NC(=O)[C@H](Cc1ccccc1)NC(=O)[C@H](CN)NC(=O)[C@H](CO)NC(=O)CN)C(=O)N[C@@H](CO)C(=O)N1CCC[C@H]1C(=O)N[C@@H](Cc1ccc(O)cc1)C(N)=O
**Q.** Which “inhibition of hGOAT activity (IC50 against hGOAT)” value (shortened to “inhibition of hGOAT activity”) [4] does the source give for B1 here?
**A.** 104 nM

B2: ligand 13, H-GS-Dap-Nal-2-LSPT-NH2 (peptide)
chain: GSXXLSPT
HELM: PEPTIDE1{G.S.[NC[C@H](N[*:1])C(=O)[*:2]].[O=C([C@H](Cc1ccc2ccccc2c1)N[*:1])[*:2]].L.S.P.T.[am]}$$$$V2.0
SMILES: CC(C)C[C@H](NC(=O)[C@H](Cc1ccc2ccccc2c1)NC(=O)[C@H](CN)NC(=O)[C@H](CO)NC(=O)CN)C(=O)N[C@@H](CO)C(=O)N1CCC[C@H]1C(=O)N[C@H](C(N)=O)[C@@H](C)O
**Q.** For B2, which “inhibition of hGOAT activity” value [4] is on record?
**A.** 16 nM

B3: ligand 4, H-Aib-S-Dap-FLSPY-NH2 (peptide)
chain: XSXFLSPY
HELM: PEPTIDE1{[Aib].S.[NC[C@H](N[*:1])C(=O)[*:2]].F.L.S.P.Y.[am]}$$$$V2.0
SMILES: CC(C)C[C@H](NC(=O)[C@H](Cc1ccccc1)NC(=O)[C@H](CN)NC(=O)[C@H](CO)NC(=O)C(C)(C)N)C(=O)N[C@@H](CO)C(=O)N1CCC[C@H]1C(=O)N[C@@H](Cc1ccc(O)cc1)C(N)=O
**Q.** For B3, which “inhibition of hGOAT activity” value [4] is on record?
**A.** > 100000 nM
